T1: C-terminal 6×His-tagged hCXCR5 whole receptor protein (human, UniProt P32302 1-372, crosslinked on the chip with NHS/EDC after capture)
T1 construct: mature; Purified whole receptor (monomers, dimers and trimers on SDS-PAGE), captured on a Ni-NTA chip and stabilized by limited crosslinking; also called human CXCR5 receptor; 6×His-hCXCR5
T1 sequence: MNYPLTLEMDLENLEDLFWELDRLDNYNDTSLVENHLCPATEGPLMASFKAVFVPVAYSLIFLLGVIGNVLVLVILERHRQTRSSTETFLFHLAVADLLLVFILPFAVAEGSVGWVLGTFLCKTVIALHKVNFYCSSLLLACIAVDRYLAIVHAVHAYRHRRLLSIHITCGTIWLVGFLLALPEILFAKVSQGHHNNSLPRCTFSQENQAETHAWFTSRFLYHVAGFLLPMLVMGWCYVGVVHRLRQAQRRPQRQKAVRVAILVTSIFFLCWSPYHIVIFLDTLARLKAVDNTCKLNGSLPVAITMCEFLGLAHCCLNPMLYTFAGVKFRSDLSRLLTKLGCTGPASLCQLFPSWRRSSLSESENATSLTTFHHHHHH


What was measured:
[1] = biological target: biotinylated N-terminal hCXCR5 peptide (human); experiment: SPR (Biacore), reversed format, biotinylated peptide on SA chip at 5 RU; mean
[2] = biological target: biotinylated N-terminal hCXCR5 peptide (human); experiment: SPR (Biacore), reversed format, biotinylated peptide on SA chip at 20 RU; mean
[3] = biological target: biotinylated N-terminal hCXCR5 peptide (human); experiment: SPR (Biacore), reversed format, biotinylated peptide on SA chip at 100 RU; mean
[4] = biological target: biotinylated N-terminal hCXCR5 peptide (human); experiment: SPR (Biacore), reversed format: biotinylated peptide on SA chip, mAb injected; mean
[5] = biological target: hCXCR5 N-terminal peptide (human); experiment: SPR (Biacore), conventional format: mAb captured by anti-mouse antibody on CM5 chip, peptide injected; mean
[6] = biological target: C-terminal 6×His-tagged hCXCR5 whole receptor protein (human) (UniProt P32302); experiment: SPR (Biacore), whole receptor captured and crosslinked on NTA chip at 300 RU, analyte injected; mean of triplicate
[7] = biological target: C-terminal 6×His-tagged hCXCR5 whole receptor protein (human) (UniProt P32302); experiment: SPR (Biacore), whole receptor captured and crosslinked on NTA chip at 700 RU, analyte injected; mean of triplicate
[8] = biological target: CD52 displayed on virus-like particles (CD52 VLP) (UniProt P31358); experiment: SPR (Biacore), CD52 VLP captured by Campath and crosslinked on C1 chip, mAb injected
[9] = biological target: CD52 displayed on virus-like particles (CD52 VLP) (UniProt P31358); experiment: SPR (Biacore), CD52 VLP captured by Campath and crosslinked on C1 chip, mAb injected; second curve
[10] = biological target: T1, C-terminal 6×His-tagged hCXCR5 whole …; experiment: SPR (Biacore), whole receptor captured and crosslinked on NTA chip at 300 RU, analyte injected; mean of triplicate
Description: For direct capturing by an NTA SPR sensor chip, the purified 6×His-hCXCR5 protein was diluted to 50 ug/ml with HBS—N (from GE) buffer. An NTA reagent kit (GE) was used for chip surface preparation. The flow rate was set to 5 ul/ml and HBS—N was used as the running buffer. […] In order to stabilize native-like structure of the receptor captured on the chip surface, the commonly used amine coupling reagent NHS/EDC was tested at different concentrations as shown in FIGS. 11 and 12.
In order to assess the impact of the avidity effect on this capture and stabilization method, chip surfaces with different receptor densities were prepared.

[11] = biological target: T1, C-terminal 6×His-tagged hCXCR5 whole …; experiment: SPR (Biacore), whole receptor captured and crosslinked on NTA chip at 700 RU, analyte injected; mean of triplicate
[12] = biological target: biotinylated N-terminal hCXCR5 peptide (human); experiment: SPR (Biacore), reversed format, biotinylated peptide on SA chip at 100 RU; mean; affected by avidity and artificial Koff
[13] = biological target: biotinylated N-terminal hCXCR5 peptide (human); experiment: SPR (Biacore), reversed format, biotinylated peptide on SA chip at 100 RU; mean; called artificial, outside the Biacore accuracy limit
[14] = biological target: biotinylated N-terminal hCXCR5 peptide (human); experiment: SPR (Biacore), reversed format: biotinylated peptide on SA chip; the reference of the comparison is not named (by Table 2, the other two clones)

Molecule | Kd [1] | koff [1] | kon [1] | Kd [2] | koff [2] | kon [2] | kon [3] | Kd [4] | koff [4] | kon [4] | Kd [5] | koff [5] | kon [5] | Kd [10] | koff [10] | kon [10] | Kd [11] | koff [11] | kon [11] | also measured
mouse anti-hCXCR5 mAb MAB190 (antibody) | 0.164 nM | 0.000711 s⁻¹ | 4.33e+06 M⁻¹ s⁻¹ | 0.0668 nM | 0.000511 s⁻¹ | 7.65e+06 M⁻¹ s⁻¹ | 6.5e+06 M⁻¹ s⁻¹ | 0.141 nM | 0.000595 s⁻¹ | 4.23e+06 M⁻¹ s⁻¹ | 0.656 nM | 0.00027 s⁻¹ | 408000 M⁻¹ s⁻¹ | – | – | – | – | – | – | Kd [3]: 0.0394 nM; koff [3]: 0.000256 s⁻¹; Kd [6]: 0.61 nM; koff [6]: 0.000423 s⁻¹; kon [6]: 694000 M⁻¹ s⁻¹; Kd [7]: 0.256 nM; koff [7]: 0.000307 s⁻¹; kon [7]: 1.2e+06 M⁻¹ s⁻¹
anti-CD52 mAb (Campath) (antibody) | – | – | – | – | – | – | – | – | – | – | – | – | – | – | – | – | – | – | – | Kd [8]: 5.75 nM; koff [8]: 0.00109 s⁻¹; kon [8]: 189000 M⁻¹ s⁻¹; Kd [9]: 5.81 nM; koff [9]: 0.000937 s⁻¹; kon [9]: 161000 M⁻¹ s⁻¹
CXCL13 (ligand, UniProt O43927 23-109, looked up, also called hCXCR5 ligand) VLEVYYTSLRCRCVQESSVFIPRRFIDRIQILPRGNGCPRKEIIVWKKNKSIVCVDPQAEWIQRMMEVLRKRSSSTLPVPVFKRKIP | – | – | – | – | – | – | – | – | – | – | – | – | – | 1.37 nM | 0.00718 s⁻¹ | 5.26e+06 M⁻¹ s⁻¹ | 0.891 nM | 0.00553 s⁻¹ | 6.25e+06 M⁻¹ s⁻¹ | –
mouse anti-hCXCR5 mAb clone 16D7 (antibody, V domains shown) VH: QVQLKESGPGLVAPSQSLSITCTVSGFSLIDYGVNWIRQPPGKGLEWLGVIWGDGTTYYNSALKSRLSIRKDNSQSQVFLKMNSLQTDDTAMYYCARIVYWGQGTLVTVSA VL: DIVMTQAAPSVAVTPRESVSISCRSSKSLLHSSGKTYLYWFLQRPGQSPQLLIYRMSNLASGVPDRFSGSGSGTAFTLRISRVEAEDVGVYYCMQHLEYPYTFGGGTKLEIK | 0.0702 nM | 4.71e-05 s⁻¹ | 681000 M⁻¹ s⁻¹ | 0.0325 nM | 2.7e-05 s⁻¹ | 832000 M⁻¹ s⁻¹ | 1.01e+06 M⁻¹ s⁻¹ | 0.065 nM | 4.59e-05 s⁻¹ | 708000 M⁻¹ s⁻¹ | 0.503 nM | 0.000241 s⁻¹ | 480000 M⁻¹ s⁻¹ | 0.0399 nM | 9.62e-06 s⁻¹ | 240000 M⁻¹ s⁻¹ | 0.0396 nM | 1.28e-05 s⁻¹ | 318000 M⁻¹ s⁻¹ | Kd [12]: 0.0974 pM; koff [13]: 9.85e-08 s⁻¹; fold slower off-rate [14]: > 10 fold

Source: patent US20140256918A1 (published 2014)
